Assays:
[1] = target: T1, FcγRIa extracellular domain with C-terminal His tag (human, UniProt P12314 16-292); assay: SPR Biacore, antibody captured on antigen-peptide chip, FcγR as analyte
T1 construct: extracellular domain; Soluble receptor used as analyte in Biacore; also called FcgRI; FcgRIa

[2] = target: T2, FcγRIIb extracellular domain with C-terminal His tag (human, UniProt P31994 43-217); assay: as above
T2 construct: extracellular domain; Soluble receptor used as analyte in Biacore; also called FcgRIIb; CD32B
T2 sequence (looked up): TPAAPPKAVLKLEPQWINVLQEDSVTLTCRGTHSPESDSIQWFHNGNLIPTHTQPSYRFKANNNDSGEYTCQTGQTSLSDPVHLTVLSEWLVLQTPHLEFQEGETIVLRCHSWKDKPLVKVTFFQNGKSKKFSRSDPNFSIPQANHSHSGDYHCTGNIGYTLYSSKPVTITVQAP

T1 sequence (P12314 16-292): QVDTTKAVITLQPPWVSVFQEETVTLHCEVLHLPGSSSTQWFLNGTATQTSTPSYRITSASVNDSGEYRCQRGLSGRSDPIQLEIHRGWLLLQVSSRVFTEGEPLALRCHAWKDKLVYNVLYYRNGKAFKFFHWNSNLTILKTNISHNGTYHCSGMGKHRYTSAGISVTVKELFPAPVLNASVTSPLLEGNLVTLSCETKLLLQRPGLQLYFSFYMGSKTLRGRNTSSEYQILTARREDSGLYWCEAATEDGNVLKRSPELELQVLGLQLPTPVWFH

| Binder | He/Con_1a [1] | He/Con_2b [2] |
| --- | --- | --- |
| GpH7-A5/GpH7-B3 variant H268_07I/GpL16-k0 (antibody, human IgG1, kappa, Heterodimerized anti-glypican-3 IgG1; mutation in the GpH7-B3 chain only; also called He Ab H268I) heavy 1: not shown heavy 2: not shown light: DIVMTQSPLSLPVTPGEPASISCQASESLVHSNRNTYLHWYLQKPGQSPQLLIYKVSNRFSGVPDRFSGSGSGTDFTLKISRVEAEDVGVYYCSQNTHVPPTFGQGTKVEIERTVAAPSVFIFPPSDEQLKSGTASVVCLLNNFYPREAKVQWKVDNALQSGNSQESVTEQDSKDSTYSLSSTLTLSKADYEKHKVYACEVTHQGLSSPVTKSFNRGEC | 108 relative, GpH7-A5/GpH7-B3/GpL16-k0 = 100 | 88.9 relative, GpH7-A5/GpH7-B3/GpL16-k0 = 100 |
| GpH7-A5/GpH7-B3 variant S267_20W/GpL16-k0 (antibody, human IgG1, kappa, Heterodimerized anti-glypican-3 IgG1; mutation in the GpH7-B3 chain only; also called He Ab S267W) heavy 1: not shown heavy 2: not shown light: DIVMTQSPLSLPVTPGEPASISCQASESLVHSNRNTYLHWYLQKPGQSPQLLIYKVSNRFSGVPDRFSGSGSGTDFTLKISRVEAEDVGVYYCSQNTHVPPTFGQGTKVEIERTVAAPSVFIFPPSDEQLKSGTASVVCLLNNFYPREAKVQWKVDNALQSGNSQESVTEQDSKDSTYSLSSTLTLSKADYEKHKVYACEVTHQGLSSPVTKSFNRGEC | 99.4 relative, GpH7-A5/GpH7-B3/GpL16-k0 = 100 | 57.2 relative, GpH7-A5/GpH7-B3/GpL16-k0 = 100 |
| GpH7-A5/GpH7-B3 variant V266_15Y/GpL16-k0 (antibody, human IgG1, kappa, Heterodimerized anti-glypican-3 IgG1; mutation in the GpH7-B3 chain only; also called He Ab V266Y) heavy 1: not shown heavy 2: not shown light: DIVMTQSPLSLPVTPGEPASISCQASESLVHSNRNTYLHWYLQKPGQSPQLLIYKVSNRFSGVPDRFSGSGSGTDFTLKISRVEAEDVGVYYCSQNTHVPPTFGQGTKVEIERTVAAPSVFIFPPSDEQLKSGTASVVCLLNNFYPREAKVQWKVDNALQSGNSQESVTEQDSKDSTYSLSSTLTLSKADYEKHKVYACEVTHQGLSSPVTKSFNRGEC | 93.3 relative, GpH7-A5/GpH7-B3/GpL16-k0 = 100 | 49.4 relative, GpH7-A5/GpH7-B3/GpL16-k0 = 100 |
| GpH7-A5/GpH7-B3 variant S267_15Y/GpL16-k0 (antibody, human IgG1, kappa, Heterodimerized anti-glypican-3 IgG1; mutation in the GpH7-B3 chain only; also called He Ab S267Y) heavy 1: not shown heavy 2: not shown light: DIVMTQSPLSLPVTPGEPASISCQASESLVHSNRNTYLHWYLQKPGQSPQLLIYKVSNRFSGVPDRFSGSGSGTDFTLKISRVEAEDVGVYYCSQNTHVPPTFGQGTKVEIERTVAAPSVFIFPPSDEQLKSGTASVVCLLNNFYPREAKVQWKVDNALQSGNSQESVTEQDSKDSTYSLSSTLTLSKADYEKHKVYACEVTHQGLSSPVTKSFNRGEC | 94.2 relative, GpH7-A5/GpH7-B3/GpL16-k0 = 100 | 37.9 relative, GpH7-A5/GpH7-B3/GpL16-k0 = 100 |
| GpH7-A5/GpH7-B3 variant H268_08L/GpL16-k0 (antibody, human IgG1, kappa, Heterodimerized anti-glypican-3 IgG1; mutation in the GpH7-B3 chain only; also called He Ab H268L) heavy 1: not shown heavy 2: not shown light: DIVMTQSPLSLPVTPGEPASISCQASESLVHSNRNTYLHWYLQKPGQSPQLLIYKVSNRFSGVPDRFSGSGSGTDFTLKISRVEAEDVGVYYCSQNTHVPPTFGQGTKVEIERTVAAPSVFIFPPSDEQLKSGTASVVCLLNNFYPREAKVQWKVDNALQSGNSQESVTEQDSKDSTYSLSSTLTLSKADYEKHKVYACEVTHQGLSSPVTKSFNRGEC | 107 relative, GpH7-A5/GpH7-B3/GpL16-k0 = 100 | 67.8 relative, GpH7-A5/GpH7-B3/GpL16-k0 = 100 |
| GpH7-A5/GpH7-B3 variant S267_12R/GpL16-k0 (antibody, human IgG1, kappa, Heterodimerized anti-glypican-3 IgG1; mutation in the GpH7-B3 chain only; also called He Ab S267R) heavy 1: not shown heavy 2: not shown light: DIVMTQSPLSLPVTPGEPASISCQASESLVHSNRNTYLHWYLQKPGQSPQLLIYKVSNRFSGVPDRFSGSGSGTDFTLKISRVEAEDVGVYYCSQNTHVPPTFGQGTKVEIERTVAAPSVFIFPPSDEQLKSGTASVVCLLNNFYPREAKVQWKVDNALQSGNSQESVTEQDSKDSTYSLSSTLTLSKADYEKHKVYACEVTHQGLSSPVTKSFNRGEC | 92.7 relative, GpH7-A5/GpH7-B3/GpL16-k0 = 100 | 11.3 relative, GpH7-A5/GpH7-B3/GpL16-k0 = 100 |
| GpH7-A5/GpH7-B3 variant S267_04F/GpL16-k0 (antibody, human IgG1, kappa, Heterodimerized anti-glypican-3 IgG1; mutation in the GpH7-B3 chain only; also called He Ab S267F) heavy 1: not shown heavy 2: not shown light: DIVMTQSPLSLPVTPGEPASISCQASESLVHSNRNTYLHWYLQKPGQSPQLLIYKVSNRFSGVPDRFSGSGSGTDFTLKISRVEAEDVGVYYCSQNTHVPPTFGQGTKVEIERTVAAPSVFIFPPSDEQLKSGTASVVCLLNNFYPREAKVQWKVDNALQSGNSQESVTEQDSKDSTYSLSSTLTLSKADYEKHKVYACEVTHQGLSSPVTKSFNRGEC | 97.7 relative, GpH7-A5/GpH7-B3/GpL16-k0 = 100 | 48 relative, GpH7-A5/GpH7-B3/GpL16-k0 = 100 |
| GpH7-A5/GpH7-B3 variant S267_11K/GpL16-k0 (antibody, human IgG1, kappa, Heterodimerized anti-glypican-3 IgG1; mutation in the GpH7-B3 chain only; also called He Ab S267K) heavy 1: not shown heavy 2: not shown light: DIVMTQSPLSLPVTPGEPASISCQASESLVHSNRNTYLHWYLQKPGQSPQLLIYKVSNRFSGVPDRFSGSGSGTDFTLKISRVEAEDVGVYYCSQNTHVPPTFGQGTKVEIERTVAAPSVFIFPPSDEQLKSGTASVVCLLNNFYPREAKVQWKVDNALQSGNSQESVTEQDSKDSTYSLSSTLTLSKADYEKHKVYACEVTHQGLSSPVTKSFNRGEC | 93.3 relative, GpH7-A5/GpH7-B3/GpL16-k0 = 100 | 12.2 relative, GpH7-A5/GpH7-B3/GpL16-k0 = 100 |
| GpH7-A5/GpH7-B3 variant V266_18N/GpL16-k0 (antibody, human IgG1, kappa, Heterodimerized anti-glypican-3 IgG1; mutation in the GpH7-B3 chain only; also called He Ab V266N) heavy 1: not shown heavy 2: not shown light: DIVMTQSPLSLPVTPGEPASISCQASESLVHSNRNTYLHWYLQKPGQSPQLLIYKVSNRFSGVPDRFSGSGSGTDFTLKISRVEAEDVGVYYCSQNTHVPPTFGQGTKVEIERTVAAPSVFIFPPSDEQLKSGTASVVCLLNNFYPREAKVQWKVDNALQSGNSQESVTEQDSKDSTYSLSSTLTLSKADYEKHKVYACEVTHQGLSSPVTKSFNRGEC | 99.5 relative, GpH7-A5/GpH7-B3/GpL16-k0 = 100 | 69.7 relative, GpH7-A5/GpH7-B3/GpL16-k0 = 100 |
| GpH7-A5/GpH7-B3 variant V266_16H/GpL16-k0 (antibody, human IgG1, kappa, Heterodimerized anti-glypican-3 IgG1; mutation in the GpH7-B3 chain only; also called He Ab V266H) heavy 1: not shown heavy 2: not shown light: DIVMTQSPLSLPVTPGEPASISCQASESLVHSNRNTYLHWYLQKPGQSPQLLIYKVSNRFSGVPDRFSGSGSGTDFTLKISRVEAEDVGVYYCSQNTHVPPTFGQGTKVEIERTVAAPSVFIFPPSDEQLKSGTASVVCLLNNFYPREAKVQWKVDNALQSGNSQESVTEQDSKDSTYSLSSTLTLSKADYEKHKVYACEVTHQGLSSPVTKSFNRGEC | 89.1 relative, GpH7-A5/GpH7-B3/GpL16-k0 = 100 | 57.2 relative, GpH7-A5/GpH7-B3/GpL16-k0 = 100 |
| GpH7-A5/GpH7-B3 variant H268_11K/GpL16-k0 (antibody, human IgG1, kappa, Heterodimerized anti-glypican-3 IgG1; mutation in the GpH7-B3 chain only; also called He Ab H268K) heavy 1: not shown heavy 2: not shown light: DIVMTQSPLSLPVTPGEPASISCQASESLVHSNRNTYLHWYLQKPGQSPQLLIYKVSNRFSGVPDRFSGSGSGTDFTLKISRVEAEDVGVYYCSQNTHVPPTFGQGTKVEIERTVAAPSVFIFPPSDEQLKSGTASVVCLLNNFYPREAKVQWKVDNALQSGNSQESVTEQDSKDSTYSLSSTLTLSKADYEKHKVYACEVTHQGLSSPVTKSFNRGEC | 106 relative, GpH7-A5/GpH7-B3/GpL16-k0 = 100 | 83 relative, GpH7-A5/GpH7-B3/GpL16-k0 = 100 |
| GpH7-A5/GpH7-B3 variant S267_18N/GpL16-k0 (antibody, human IgG1, kappa, Heterodimerized anti-glypican-3 IgG1; mutation in the GpH7-B3 chain only; also called He Ab S267N) heavy 1: not shown heavy 2: not shown light: DIVMTQSPLSLPVTPGEPASISCQASESLVHSNRNTYLHWYLQKPGQSPQLLIYKVSNRFSGVPDRFSGSGSGTDFTLKISRVEAEDVGVYYCSQNTHVPPTFGQGTKVEIERTVAAPSVFIFPPSDEQLKSGTASVVCLLNNFYPREAKVQWKVDNALQSGNSQESVTEQDSKDSTYSLSSTLTLSKADYEKHKVYACEVTHQGLSSPVTKSFNRGEC | 102 relative, GpH7-A5/GpH7-B3/GpL16-k0 = 100 | 47.7 relative, GpH7-A5/GpH7-B3/GpL16-k0 = 100 |
| GpH7-A5/GpH7-B3 variant H268_14T/GpL16-k0 (antibody, human IgG1, kappa, Heterodimerized anti-glypican-3 IgG1; mutation in the GpH7-B3 chain only; also called He Ab H268T) heavy 1: not shown heavy 2: not shown light: DIVMTQSPLSLPVTPGEPASISCQASESLVHSNRNTYLHWYLQKPGQSPQLLIYKVSNRFSGVPDRFSGSGSGTDFTLKISRVEAEDVGVYYCSQNTHVPPTFGQGTKVEIERTVAAPSVFIFPPSDEQLKSGTASVVCLLNNFYPREAKVQWKVDNALQSGNSQESVTEQDSKDSTYSLSSTLTLSKADYEKHKVYACEVTHQGLSSPVTKSFNRGEC | 112 relative, GpH7-A5/GpH7-B3/GpL16-k0 = 100 | 86 relative, GpH7-A5/GpH7-B3/GpL16-k0 = 100 |
| GpH7-A5/GpH7-B3 variant S267_16H/GpL16-k0 (antibody, human IgG1, kappa, Heterodimerized anti-glypican-3 IgG1; mutation in the GpH7-B3 chain only; also called He Ab S267H) heavy 1: not shown heavy 2: not shown light: DIVMTQSPLSLPVTPGEPASISCQASESLVHSNRNTYLHWYLQKPGQSPQLLIYKVSNRFSGVPDRFSGSGSGTDFTLKISRVEAEDVGVYYCSQNTHVPPTFGQGTKVEIERTVAAPSVFIFPPSDEQLKSGTASVVCLLNNFYPREAKVQWKVDNALQSGNSQESVTEQDSKDSTYSLSSTLTLSKADYEKHKVYACEVTHQGLSSPVTKSFNRGEC | 100 relative, GpH7-A5/GpH7-B3/GpL16-k0 = 100 | 65.9 relative, GpH7-A5/GpH7-B3/GpL16-k0 = 100 |
| GpH7-A5/GpH7-B3 variant V266_20W/GpL16-k0 (antibody, human IgG1, kappa, Heterodimerized anti-glypican-3 IgG1; mutation in the GpH7-B3 chain only; also called He Ab V266W) heavy 1: not shown heavy 2: not shown light: DIVMTQSPLSLPVTPGEPASISCQASESLVHSNRNTYLHWYLQKPGQSPQLLIYKVSNRFSGVPDRFSGSGSGTDFTLKISRVEAEDVGVYYCSQNTHVPPTFGQGTKVEIERTVAAPSVFIFPPSDEQLKSGTASVVCLLNNFYPREAKVQWKVDNALQSGNSQESVTEQDSKDSTYSLSSTLTLSKADYEKHKVYACEVTHQGLSSPVTKSFNRGEC | 91.4 relative, GpH7-A5/GpH7-B3/GpL16-k0 = 100 | 71.9 relative, GpH7-A5/GpH7-B3/GpL16-k0 = 100 |
| GpH7-A5/GpH7-B3 variant S267_05P/GpL16-k0 (antibody, human IgG1, kappa, Heterodimerized anti-glypican-3 IgG1; mutation in the GpH7-B3 chain only; also called He Ab S267P) heavy 1: not shown heavy 2: not shown light: DIVMTQSPLSLPVTPGEPASISCQASESLVHSNRNTYLHWYLQKPGQSPQLLIYKVSNRFSGVPDRFSGSGSGTDFTLKISRVEAEDVGVYYCSQNTHVPPTFGQGTKVEIERTVAAPSVFIFPPSDEQLKSGTASVVCLLNNFYPREAKVQWKVDNALQSGNSQESVTEQDSKDSTYSLSSTLTLSKADYEKHKVYACEVTHQGLSSPVTKSFNRGEC | 91.8 relative, GpH7-A5/GpH7-B3/GpL16-k0 = 100 | 31.5 relative, GpH7-A5/GpH7-B3/GpL16-k0 = 100 |

— patent US20150344570A1 (published 2015)
